In the nanobody polyreactivity screen of Harvey et al. (2022):

Experiment: yeast display, Sf9 membrane polyspecificity reagent, FACS + sequencing; frameworks hold sequencing errors
Procedure, shortened: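 Galactose induction of a Saccharomyces cerevisiae BJ5465 synthetic nanobody display library ran 36–48 hours. The cells were then stained for 1 hour at 4 °C with 10% biotinylated, detergent-solubilized Sf9 membrane reagent, pulled down on streptavidin microbeads and FACS-sorted into low and high (top ~1%) gates on expression and reagent-binding fluorescence. Labels for polyreactivity follow the gate of origin.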

Sequence	polyreactivity (PSR sort gate)
QVQLVESGGGLVQAGGSLRLSCAASGSIFYEYTMGWYRQAPGKERELVAVITSGGTTNYADSVKGRFTISRDNAKNTVYLQMNSLKPEYTAVYYCAAESKNKYDYWGQGTQVTVSS	high polyreactivity
QVQLVESGGGLVQAGGSLRLSCAASGSIFAGNAMGWYRQAPGKERELVAAITFSAGRTSYADSVKGRFTISRDNAKNTVYLQMNSLKPEDTAVYYCAARYRTDYYPEYDYWGQGTQVTVSS	low polyreactivity
QVQLVESGGGLVQAGGRLRLSCAASGFTFAYYAMGGNRQSPGKERELVAAISSGGGSTYYADSEKGRFTISRDNAKNTVYLQMNSQKPEDTAVYYCAAESCSPQAWFDYWGQGTQVTVSS	high polyreactivity
QVQLVESGGGLVQAGGSLRLSCASSGRIYVYTMGWYRQAPGKERELVATITRSGGSTYYADSVKGRFTISRDNAKNTVYLQMNSLKPEDTAVYYCNAVGRFTPYSSRREYDYWGQGTQVTVSS	low polyreactivity
QVQLVESGGGLVQAGGSLRLSCAASGNTIGKYAMGWYRQAPGKETELVATITRRGGSTYYADSVKGRFTISRDNAKNTVYLQMNSLKPEDTAVYYCNRAVTYGTYDYWGQGTQVTVSS	high polyreactivity
QVQLVESGGGFVQAGGSLRLSCAASGSTFRWNAMGWYRHAPGKERELDASITAGGSTNYADSVKGRFTISRDNAKNTVYLQINSLTPEDTAVYYCNADVRRSTYYVWLYDYWGQGTQVTVSS	low polyreactivity
QVQLVESGGGLVQAGGSHRLSCAASGLTLYQYTMGWYRQAPGKERELVAAITTSGSTYYADSVKGRFTISRDNEKNTVYLQMNSLKPEDTAVYYCAAVVYYVDTLSGYRYGYDYWGQCTQVTVSS	low polyreactivity
QVQLVESGGGLVQAGGSLRLSCAASGSILRKYAMGWYRQAPGKERELVAAISWSGGSTYYADSVKGRFTISRDNAKNTVYVQMNSLKPEDTAVYYCNRDGLSRPYYYWGQGTQVTVSS	high polyreactivity
QDQLVDSGGGLVQAGGSLRLSCAASGSIFYLYAMGWYRQAPGKEREFVAAITWRGGSTYYADSVKGRFTISRDNAKNTVYLQLNSLKPEDTAVYYCGAKLPRVYGYGFEYWGQGTQVTVSS	low polyreactivity
QVQLVESVGGLVQAGGSLRLSSAASGRTSWYYAMGWYRQAPGKERELVATITRTTGSTYYADSVKGRFTISRDNAKNTVYLQMNSLKPEDTAVYYCDRLYYFNGDYWGLGTQVTVSS	high polyreactivity
QVQLVESGGGLVQAGGSLRLSCAASGITFGRNTMGWYRQAPRKERELVAAIDSGGNTYADSVKGRFTISRDNAKNTVYLQMNSLKPEDTAVYYCAVDGGEFSSYGYWGQGTQVTVSS	low polyreactivity
QVQIVESGGGLVQAGGSLRISCAASGFTFRYYVMGWYRQAPGKEREFVAAISRSGGITYADSVKGRFTISRDNAKNTVYLQMNSLKPEDTAVYYCNAKSRTGYGRGDYWGQGTQVTVSS	high polyreactivity
QVQLVESGGGLVQAGGSLRLSCAASGRIFGYTMGWYRQAPGKERELVAAISKSGGSTYYADSVKGRFTISRDNAKNTVYLQMNSLKPEDTAVYYCAAEYGYGKRAYDSWGQGTQVTVSS	high polyreactivity
QVQLVESGGGLVQAGGSLRLSCAASGMGWYRQAPGKERELVARISGGVSTNYADSVKGRFTISRDNAKNTVYLQMNSLKPEDTAVYYCAADPLDTYDYWGQGTQVTVSS	low polyreactivity
QVQHVESGGGLLQAGGSLRLTCTASRSIFPYYAMGWYRQATGKERELVAAISSSGARTYYADSVKGRFTISRDNAKNTVYLQMNSLKPEDTGFYYCNSDTIRYRTYGRYAWYNYWGQGTQVTVSS	high polyreactivity
QVQLVESGGGLDQAGGSLRLSCAASGSIFPINAMGWYRQAPGKEREFDAAISSRGGSTYYADSVKGRFTISRDNAKNTVYFQMNSLKPEDTAVYYCAKYASVGYGRYPYDYWGQGTQVTVSS	high polyreactivity
QVQLVESGGGLVQAGGSLRLICAASGFTFASNAMGWYRQATGKERELVAAITTSGGSTYYADSVKGRFTISRDNAKNTVYLQMNSLKPEDTSVYYCADRATSRRPYSYGSWGQGTQVTVSS	high polyreactivity
QVQLVESGGGLVQAGGSLRLSCAASGSIFAYYAMGWYRQAPGKERELVAAISRRAGTTYYADSVKGRFTISRDNAKNTVYLQMNSLKPEDTAVYYCAKVSSVWYPRVDYWGQGTQVTVSS	low polyreactivity
QVQLVESGGGLVQAGRSLRLSCAASGRTFVYYAMGWYRQAPGKERELVATISSSDSTNYADSVKGRFTISRDNAKNTVYLQMNSLKPEDTAVYYCAAGPKGGGYYDPFDYWGQGTQVTVSS	low polyreactivity
QVQLVESGGALVQAGGSLRLSCAASGIIFGRNGMGWYRQAPGKERELVAAISRGGGSTYYADSVKGRFTISRDNAKNTVYLQMNSLKPEDTAVYYCARRPTGIYDYWGQVTQVTVSS	high polyreactivity
QVQLVESGGGLVQAGGSLRISCAASGFTLRVNAMGWYRQAPGKERELVAAISDSGGDTYYSNSVKGRFTISRDNAKNTVYLQMNSLKPEDTAVYYCAADDGSENDYWGQGTQVTVSS	low polyreactivity
QVQLVESGGGLVQAGGSLRLSCAASGNIFGDYAMGWYRQAPGKERELVAAITQTGGNTYYADSVKGRFTISRDNAKNTVYLQMNSLKPEDTAVYYCNKVSVVYSRSKGFYYTYLKYEYWGQGTQVTVSS	low polyreactivity

Sequence	polyreactivity (PSR sort gate)
QVQLVESGGGLVQAGGSLRLSCAASGITFYQYALGWYRQAPGKERELVARISYSGGSTYADSVKGRFTISRDNAKNTVYLQMNSLKPEDTAVYYCATAYRFRYGFANRYDYWGQGTQVTVSS	low polyreactivity
QVQLVESGGGLVQARGSLRLSCASSGSTFGGYAMGWYRQAPGKERELVPAITRSGGSTYYADSVKGRFTISRDNGKNTVYLQMNSLKPEDTAVYYCAARVPRGDRPGYHYAYYYWGQGTQVTVSS	high polyreactivity
QVQLVESGGGLVQAGGSLRLSCAASGSTFGYYAMGWYRQAPGKERELVAAITYSGGGTYYADSVKGRFTISRDNAKNTVYLQMNSLKPEDTAVYYCAATIPYSLYGYDYWGQGTQVTVSS	low polyreactivity
QVQLVESGGCLVQAGGSLRLSCAASGRIFSSYAMGWYRQAPGKERELVAAIRSSGDRTYYADSVKGRFTISRDNAKNTVYFQMNSLKPEDTAVYYCAADLRRFQSYYYWGQGTQVTVSS	high polyreactivity
QVQLVESGGGLVQAGGSLRLSCAASGRIFRWYAMGWYRQAPGKERELVAAISYSGGSTYYADSVKGRFTISRDNAKNTVYLQMNSLKPEDTAVYYCAAATYYKFDYWGQGTQVTVSS	high polyreactivity
QVQLVESGGGLVQAGGSLRLSCAASGFSIYRNSMGWYRPAPGKERELVAGISSGGSTNYADSVKGRFTISRDNAKNTVYLQMNSLKPEDTAVYYCATRVYALWFGRYDYWGQGTQVTVSS	high polyreactivity
QVQLVESGGGLVQAGGSLRLSCAASGRIFASYAMGWYRQAPGKERELVAAISLSGGSTYYADSVKGRFTISRDNAKNTVYLLMNSLKPEDNAVYYCNRLSNNREYVYWGQGTQLTVSS	high polyreactivity
QVQLVESGGGLVQAGGSLRLSCAASGSIFGRYAMGWYRQAPGTERELVAAISSGGITYYADSVKGRFTISRDNAKNTVYLQMNSLTPEDTAVYYCAVKYLSWYAKYDSWGQGTQVTVSS	high polyreactivity
QVQVVESGGGLVQAGGTLRLSCAASGFILPHYTMGWYRQAPAKERELVAAITSGVSTYYADSVKGRFTISRDNAKNTVYLQMNSLKTEDTAVYYCNALATYIGYKYDYWGQGTQVTVSS	low polyreactivity
QVQLVESGGGLVQAGGSLRLSCAASGIIFHFNAMGWYRQAPGKERELVAAITSGANTNYADSVKGRFTISRDNAKNTVYLQMNSLKPEDTSVYYCATRPHTDVRFVRTRRYDYWGQGTQVTVSS	low polyreactivity
QVQLVESGGGLVQAGGSLRLSCAASGSTFYPYAMGWYIQAPGKERELVARISSDGSTYADSVKGRFTISRDNAKNTVYLQMNSLKPEDTAVYYCNADAGTGVGWWDDYDYWGQGTQVTVSS	low polyreactivity
QVQLQESGRRPGAAGGSPRMSCAASGNIFWVAVMGRYRQAPGKERELVASIGFGCTTYYADSVKCRFTISRDNAKNTVYLQMISLQPEDTAVYYCAAPHYDWGELDYWGQGTQVPVSS	low polyreactivity
QVQLVESGGGLVQAGGSLRLICAASGSFFSKYAMGWYRQAPGTEREWVAAISWSGTSTYYADSVKGRFTISRDNAKITVYLQLNSLKTEDNAVSYCAASSPRSLSLLGYWGQGTQVTESS	low polyreactivity
QVQLVESGGGIVQAGGSLRLSCAASGYIFQYYAMGWYRQAPGKERELVAAITGGGSTKYADSVKGRFTISRDNAKNTVYLQMNSLKPEDTAVYYCAASLWYRISKYDYWGQGTQVTVSS	high polyreactivity
QVQLVESGGGLVQAGGSLRLSCAASGYIFTDKVMGWYIQAPGKERELVAAITYSAASTYYADSVKGRFTISRDNAKNTVYLQMNSLKPEDTAVYYCATEYYIGVNYRGDYWGQGTQVTVSS	low polyreactivity
QVQLVESGGGLVQAGGSLRLSCAASGRTLYTNAMGWYRQAPGKERELVAAITSGASTNYADSVKGRFTISRDNAKNSVYLQMNSLKPEDTSVYYCASRTYHLWNARRYDYWGQGTQVTVSS	low polyreactivity
QYQLVESGGGLVQAGGRLRLSCAASGSIFSNYAMGWYRQAPGKERQFVAAISGGGGSTYYADSVKGRFTISRDNANNTVYLQMNSLKPEDTAVYYCARVRYYGALKLYAYDHWGQGTQVTVSS	high polyreactivity
QVQLVESGGGLVQAGGSLRLSCAASGITFADYVMGWYRPAPGKERELVAAISTDGGSTYYADSVKGRFTISRDNAKNTVYLQMNSLKPEDTAVYYCASEWSYPGYEFDYWGQGTQVTVSS	high polyreactivity
QVQLVESGGGLVQAGGSLRLSCAASGSIFDNNAMGWYRQSPGKEREFVAAISWIGGSTSYADSVKGRFTISSDNAKNTVYLQMNSLKPEDTAVYYCNSLRYYPYGLPIYDYWGQGTQVTVSS	low polyreactivity
QVQLVESGGGLVQAGGSLRLSCAASGSTFVLYAMGWYRQAPGKERELVADITWSGGSTYYADSVKGRFTISRDNAMNTVYLLMNSLKPEDTAVYYCAARYPWVYYDFDYWGQGTQVTVSS	low polyreactivity
QVQLVESGGGLVQAGGSLRLSCAASGLTFGTYAMGWYRQAPGKERELVAAISTSGVRTYYADSVKGRFTISRDNAKNTVYLQMNSLKPEDTAVYYCAARYNRAYSRDYWGQGTQVTVSS	high polyreactivity
